The values below come from patent publication US20240360219A1.

The target in assay [1] is human TGFβ1 (human) (UniProt P01137).
For assay [2], the target named is human TGFβ3 (human) (UniProt P10600).
Sequence of UniProt P10600 (P10600 301-412 limits assumed): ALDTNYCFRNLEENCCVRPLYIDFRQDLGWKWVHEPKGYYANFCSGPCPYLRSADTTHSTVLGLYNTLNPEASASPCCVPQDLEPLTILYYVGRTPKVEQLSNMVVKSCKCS

Sequence of UniProt P01137 (P01137 279-390 limits assumed): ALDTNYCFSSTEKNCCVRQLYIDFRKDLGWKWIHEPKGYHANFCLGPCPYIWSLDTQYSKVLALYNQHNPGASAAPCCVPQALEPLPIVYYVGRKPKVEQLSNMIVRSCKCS

Turning to M7824, the IC50, inhibition of TGFβ1-induced Smad2 reporter activity in assay [1] was found to be 0.91 nM. For the same substance, the IC50, inhibition of TGFβ3-induced Smad2 reporter activity in assay [2] was 1.95 nM.
